From patent publication US9301917B2, “Sustained-release pharmaceutical composition” (Kyoto University, priority 2010, dated 2016)

Tests used:
[1] = Influence of sugar on drug release from collagen in vitro (Example 1); type: physicochemical; conditions: lysozyme 2 mg/mL, atelocollagen 3% [w/v], sucrose 0.05 M vs no sucrose; PBS external liquid, 37° C., HPLC
Procedure: The influence of a sugar on drug release from a collagen was confirmed through use of lysozyme (final concentration: 2 mg/mL) (Sigma-Aldrich Corporation) as a drug.
Lysozyme was dissolved in a physiological buffer (PBS, pH 7.4) containing sucrose (final concentration: 0.05 M) or a physiological buffer containing no sucrose. After that, the solution and an atelocollagen solution (final concentration: 3% [w/v]) (product name: KOKEN ATELOCOLLAGEN IMPLANT) were mixed and formulated.
Conditions for the measurement were as follows: • Initial eluent: 30% acetonitrile solution containing 0.1% triethylamine (TEA) • Final eluent: concentration-gradient elution with 45% acetonitrile solution containing 0.1% TEA • rate: 1 mL/min • Elution time: 30 minutes • Detection wavelength: 220 nm

[2] = Influence of formulation procedure on drug release rate in vivo (Example 3); conditions: 100 μL to dorsal subcutis of mice, 1 hour; lysozyme 5 mg/mL, sucrose 0.25 M, atelocollagen 3% [w/v]; different mixing orders
Procedure: The following three kinds of ingredients were mixed in different orders and formulated as shown in the following items a) to d): lysozyme (MW: 14 kDa); sucrose; and atelocollagen (product name: KOKEN ATELOCOLLAGEN IMPLANT).
Each of the formulations was prepared so that the final concentrations of lysozyme, sucrose, and atelocollagen were 5 mg/mL, 0.25 M, and 3% [w/v], respectively.
100 μL of each of the formulations according to the above-mentioned items a) to d) were administered to the dorsal subcutis of mice. One hour later, the formulation that underwent gelation at a body temperature was taken out, and the amount of the lysozyme remaining in the gel was measured by HPLC to calculate the release amount of the lysozyme.

Substance: lysozyme
- amount of the lysozyme released into the external liquid [1]: large in the case of containing sucrose as compared to the case of containing no sucrose
- release amount of the lysozyme in vivo [2]: varied depending on a change in mixing procedure
